From the supplement of paper PMC10899765

Legend:
Settings in all cases: 20 nM; 72 h
MCF10A [1] = experiment: percent viability (nuclei count relative to siNT); higher = more viable cells
Experimental: (§1)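 After 72 h, cells were fixed and stained with Hoechst and anti-fibrillarin, and nucleoli per nucleus were counted with CellProfiler. Values are plate-adjusted percent effect for the one-nucleolus and 5+ nucleoli phenotypes, normalised to siNT (0%) and to the positive controls siNOL11 or siKIF11 (100%), as the mean of biological triplicates. Percent viability is the nuclei count relative to siNT.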

MCF10A [2] = experiment: 5+ nucleoli phenotype percent effect (relative to siNT 0% and siKIF11 100%); higher = more cells with five or more nucleoli
Experimental: as §1

MCF10A [3] = experiment: one-nucleolus phenotype percent effect (relative to siNT 0% and siNOL11 100%); higher = more cells with one nucleolus (ribosome biogenesis inhibition)
Experimental: as §1

| Sequence | percent viability (MCF10A [1]) [%] | 5+ nucleoli phenotype percent effect (MCF10A [2]) [%] | one-nucleolus phenotype percent effect (MCF10A [3]) [%] |
| --- | --- | --- | --- |
| UAGUAGACCGUAUAGCGUACG [hsa-miR-411-5p] | 69.2 | 15.2 | -6.18 |
| UCUGGGCAACAAAGUGAGACCU [hsa-miR-1285-3p] | 28.8 | 2.8 | 20.6 |
| AGACCUGGCCCAGACCUCAGC [hsa-miR-631] | 25.9 | -2.57 | 24.7 |
| GAAGGCGCUUCCCUUUAGAGCG [hsa-miR-525-3p] | 42.5 | -16.5 | 37.2 |
| UAGCACCAUUUGAAAUCAGUGUU [hsa-miR-29b-3p] | 63.7 | 20.2 | -20.6 |
| CUCCGGGACGGCUGGGC [hsa-miR-4497] | 67.6 | 0.934 | -8.42 |
| CUGAAUAGCUGGGACUACAGGU [hsa-miR-5585-3p] | 44.1 | 16.9 | -12.6 |
| UGGUCUGUCUCUGCCCUGGCAC [hsa-miR-6753-3p] | 21.6 | -4.31 | 39.6 |
| UCGCGGUUUGUGCCAGAUGACG [hsa-miR-579-5p] | 64.6 | 41.8 | -22.2 |
| ACAGUAGUCUGCACAUUGGUUA [hsa-miR-199b-3p] | 92 | 36.1 | -19.3 |
| AUUGACACUUCUGUGAGUAGA [hsa-miR-514a-3p] | 56.9 | -5.72 | 13.2 |
| CCUGUGCUCCCAGGGCCUCGC [hsa-miR-5008-3p] | 77.3 | 24 | -14.5 |
| GCUCAUCCCCAUCUCCUUUCAG [hsa-miR-6870-3p] | 115 | 36.6 | -31.1 |
| AGGUAGAAUGAGGCCUGACAU [hsa-miR-4650-3p] | 33.4 | -12.9 | 7.9 |
| CGGGGUUUUGAGGGCGAGAUGA [hsa-miR-193b-5p] | 46.7 | -32.1 | 25.4 |
| AUCGGGAAUGUCGUGUCCGCCC [hsa-miR-425-3p] | 109 | -1.09 | -1.79 |
| GAUUUCAGUGGAGUGAAGUUC [hsa-miR-205-3p] | 133 | 51.7 | -30.2 |
| GUGGCUGCACUCACUUCCUUC [hsa-miR-647] | 46 | -9.97 | 33.1 |
| GGAUGGUUGGGGGCGGUCGGCGU [hsa-miR-8069] | 33.5 | -16.7 | 28.5 |
| CAUCCCUUGCAUGGUGGAGGG [hsa-miR-188-5p] | 98.4 | 45.6 | -13.1 |
| CACCUUUGUGUCCCCAUCCUGCA [hsa-miR-6782-3p] | 51.1 | 49.2 | -13.1 |
| UGGAGGAGAAGGAAGGUGAUG [hsa-miR-765] | 21.1 | 16.3 | 26.5 |
| GUGCGUGGUGGCUCGAGGCGGGG [hsa-miR-6821-5p] | 82.1 | 24.3 | -27.7 |
| GGCGGAGGGAAGUAGGUCCGUUGGU [hsa-miR-658] | 63 | 5.47 | -9.25 |
| CCCCGGUGUUGGGGCGCGUCUGC [hsa-miR-4783-3p] | 49.5 | 13.9 | -13 |
| UGGAGAUCCAGUGCUCGCCCGAU [hsa-miR-4683] | 56.7 | -20.1 | 24.4 |
| UAUGUGCCUUUGGACUACAUCG [hsa-miR-455-5p] | 44.7 | -19.3 | -2.17 |
| GAGGCUGAUGUGAGUAGACCACU [hsa-miR-3929] | 30.5 | -13.8 | 14.1 |
| CUCUCUGGCCGUCUACCUUCCA [hsa-miR-3191-5p] | 31.4 | -62.4 | 46.1 |
